The assay addresses T1, insulin like growth factor 1 receptor (IGF1R) (human, UniProt P08069 31-736; P08069 741-1367).
T1 construct: Endogenous IGF1R in MCF-7 and T47D breast cancer cells; also called IGF1 receptor; IGFR1
Kind of assay: in situ proximity ligation assay (Duolink), MCF-7 and T47D cells. As to the method:
In situ proximity ligation assay (PLA) was used to analyze the direct interaction between IGF1R and E-cadherin in breast cancer cells. MCF-7 (FIG. 7A) and T47D (FIG. 7B) cells were plated on coverslips, fixed, and stained with IGF1R and E-cadherin antibody overnight. The Duolink (Sigma) protocol was followed and coverslips were imaged using confocal microscopy to reveal red puncta. MCF-7 cells transfected with anti-CDH1 siRNA (siCDH1; FIG. 7C) or anti-IGF1R siRNA (siIGF1R; FIG. 7D) were used as negative controls for the assay to assess primary antibody specificity. […] All puncta and nuclei in 60× images were counted. One-way ANOVA was used to determine significant difference between groups (p<0.05; one independent experiment, n=5 images per slide counted). Further, IGF1R (green; second column from left) and E-cadherin (red; third column from left) were analyzed for co-localization (merge; fourth column from left) by immunofluorescence staining in MCF-7 cells transfected with siSCR (FIG. 7J) or siCDH1 (FIG. 7K). […]
Cells were plated on coverslips and fixed in 4% paraformaldehyde for 30 minutes at 37° C. […] The ratio of puncta/nuclei for each experimental condition was calculated by counting all puncta and nuclei in five 60× images.

T1 sequence (P08069 31-736, chain 1 of 2): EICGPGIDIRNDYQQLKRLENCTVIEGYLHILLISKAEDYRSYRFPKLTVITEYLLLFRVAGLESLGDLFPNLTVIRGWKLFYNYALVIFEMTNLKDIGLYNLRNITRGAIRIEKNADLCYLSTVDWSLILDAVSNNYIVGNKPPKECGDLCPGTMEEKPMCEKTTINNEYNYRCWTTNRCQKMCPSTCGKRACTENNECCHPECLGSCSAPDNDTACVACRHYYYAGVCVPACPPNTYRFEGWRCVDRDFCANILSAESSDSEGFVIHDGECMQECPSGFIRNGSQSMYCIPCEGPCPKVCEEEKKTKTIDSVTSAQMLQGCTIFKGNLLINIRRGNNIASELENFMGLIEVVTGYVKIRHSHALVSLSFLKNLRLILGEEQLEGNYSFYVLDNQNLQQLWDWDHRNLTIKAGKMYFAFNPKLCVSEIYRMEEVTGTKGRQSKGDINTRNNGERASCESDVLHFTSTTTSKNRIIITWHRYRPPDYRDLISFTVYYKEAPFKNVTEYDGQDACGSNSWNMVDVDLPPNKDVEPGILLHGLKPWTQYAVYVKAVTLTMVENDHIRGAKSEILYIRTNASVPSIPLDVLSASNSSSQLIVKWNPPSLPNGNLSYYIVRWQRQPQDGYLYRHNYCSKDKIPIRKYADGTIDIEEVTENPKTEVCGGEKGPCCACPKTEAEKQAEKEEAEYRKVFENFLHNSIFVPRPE
T1 sequence (P08069 741-1367, chain 2 of 2): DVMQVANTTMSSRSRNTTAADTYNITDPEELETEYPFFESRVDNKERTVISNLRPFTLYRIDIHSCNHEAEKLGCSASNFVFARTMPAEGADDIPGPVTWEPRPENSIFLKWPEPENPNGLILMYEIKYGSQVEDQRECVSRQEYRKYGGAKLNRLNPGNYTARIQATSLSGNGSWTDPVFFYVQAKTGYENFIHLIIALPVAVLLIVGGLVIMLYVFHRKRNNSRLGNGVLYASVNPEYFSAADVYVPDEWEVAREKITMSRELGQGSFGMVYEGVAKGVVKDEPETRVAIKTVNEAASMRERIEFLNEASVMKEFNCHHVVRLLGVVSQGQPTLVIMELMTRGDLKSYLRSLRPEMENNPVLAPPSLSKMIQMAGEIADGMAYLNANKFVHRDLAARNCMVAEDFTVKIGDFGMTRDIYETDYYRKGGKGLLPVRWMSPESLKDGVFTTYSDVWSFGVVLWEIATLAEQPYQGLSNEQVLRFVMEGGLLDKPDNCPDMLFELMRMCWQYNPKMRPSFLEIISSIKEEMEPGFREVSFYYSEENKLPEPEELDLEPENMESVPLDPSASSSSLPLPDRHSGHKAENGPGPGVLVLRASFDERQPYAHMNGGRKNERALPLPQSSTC

B1: E-cadherin (CDH1) (other)
chain: DWVIPPISCPENEKGPFPKNLVQIKSNKDKEGKVFYSITGQGADTPPVGVFIIERETGWLKVTEPLDRERIATYTLFSHAVSSNGNAVEDPMEILITVTDQNDNKPEFTQEVFKGSVMEGALPGTSVMEVTATDADDDVNTYNAAIAYTILSQDPELPDKNMFTINRNTGVISVVTTGLDRESFPTYTLVVQAADLQGEGLSTTATAVITVTDTNDNPPIFNPTTYKGQVPENEANVVITTLKVTDADAPNTPAWEAVYTILNDDGGQFVVTTNPVNNDGILKTAKGLDFEAKQQYILHVAVTNVVPFEVSLTTSTATVTVDVLDVNEAPIFVPPEKRVEVSEDFGVGQEITSYTAQEPDTFMEQKITYRIWRDTANWLEINPDTGAISTRAELDREDFEHVKNSTYTALIIATDNGSPVATGTGTLLLILSDVNDNAPIPEPRTIFFCERNPKPQVINIIDADLPPNTSPFTAELTHGASANWTIQYNDPTQESIILKPKMALEVGDYKINLKLMDNQNKDQVTTLEVSVCDCEGAAGVCRKAQPVEAGLQIPAILGILGGILALLILILLLLLFLRRRAVVKEPLLPPEDDTRDNVYYYDEEGGGEEDQDFDLSQLHRGLDARPEVTRNDVAPTLMSVPRYLPRPANPDEIGNFIDENLKAADTDPTAPPYDSLLVFDYEGSGSEAASLSSLNSSESDKDQDYDYLNEWGNRFKKLADMYGGGEDD
notes: Endogenous E-cadherin in MCF-7 and T47D breast cancer cells; also called epithelial cadherin; CD324
Take B1: the binding result is “binds”.
